In publication PMC4372372:

Target: rPmMasSPH1 (His-tagged recombinant C-terminal SP-like domain of PmMasSPH1) (Penaeus monodon)

Substance: rPmPPAE2 (His-tagged recombinant SP domain of PmPPAE2) (domain or fragment)
- PGN-triggered PO activity of shrimp hemolymph in vitro (L-DOPA, change of A490 at 5 min), with 0.25 ug PGN and 1 uM of each recombinant protein, relative to hemolymph alone: 102%
